What was measured:
Experiment in all cases: cell-based or functional assay
[1] = target: HIV-1 Env pseudovirus 3103.v3.c10 (HIV-1)
[2] = target: HIV-1 Env pseudovirus 235-47 (HIV-1)
[3] = target: HIV-1 Env pseudovirus 3365.v2.c2 (HIV-1)
[4] = target: HIV-1 Env pseudovirus 3415.v1.c1 (HIV-1)
[5] = target: HIV-1 Env pseudovirus BJOX025000.01.1 (HIV-1)
[6] = target: HIV-1 Env pseudovirus C3347.c11 (HIV-1)
[7] = target: HIV-1 Env pseudovirus R2184.c04 (HIV-1)
[8] = target: HIV-1 Env pseudovirus 0815.v3.c3 (HIV-1)
[9] = target: HIV-1 Env pseudovirus 6952.v1.c20 (HIV-1)
[10] = target: HIV-1 Env pseudovirus 231965.c01 (HIV-1)
[11] = target: HIV-1 Env pseudovirus 6480.v4.c25 (HIV-1)
[12] = target: HIV-1 Env pseudovirus C1080.c03 (HIV-1)
[13] = target: HIV-1 Env pseudovirus 0260.v5.c36 (HIV-1)
[14] = target: HIV-1 Env pseudovirus R1166.c01 (HIV-1)
[15] = target: HIV-1 Env pseudovirus T255-34 (HIV-1)
[16] = target: HIV-1 Env of pseudovirus 62357_14_D3_4589 (clade B (T/F)) (HIV-1)
[17] = target: HIV-1 Env of pseudovirus HIV-16845-2.22 (clade C) (HIV-1)
[18] = target: HIV-1 Env of pseudovirus RHPA4259.7 (clade B) (HIV-1)
[19] = target: HIV-1 Env of pseudovirus 1056_10_TA11_1826 (clade B (T/F)) (HIV-1)
[20] = target: HIV-1 Env of pseudovirus 7030102001E5(Rev-) (clade C (T/F)) (HIV-1)
[21] = target: HIV-1 Env of pseudovirus Du422.1 (clade C) (HIV-1)
[22] = target: HIV-1 Env of pseudovirus PVO.4 (clade B) (HIV-1)
[23] = target: HIV-1 Env of pseudovirus ZM197M.PB7 (clade C) (HIV-1)
[24] = target: HIV-1 Env of pseudovirus Q461.e2 (clade A) (HIV-1)
[25] = target: HIV-1 Env of pseudovirus HIV-001428-2.42 (clade C) (HIV-1)
[26] = target: HIV-1 Env of pseudovirus Q842.d12 (clade A) (HIV-1)
[27] = target: HIV-1 Env of pseudovirus QH0692.42 (clade B) (HIV-1)
[28] = target: HIV-1 Env of pseudovirus AC10.0.29 (clade B) (HIV-1)
[29] = target: HIV-1 Env of pseudovirus CNE30 (clade BC) (HIV-1)
[30] = target: HIV-1 Env of pseudovirus X2088_c9 (clade G) (HIV-1)
[31] = target: HIV-1 Env of pseudovirus 211-9 (clade CRF02_AG) (HIV-1)
[32] = target: HIV-1 Env of pseudovirus BJOX015000.11.5 (clade CRF01_AE (T/F)) (HIV-1)

Substance: N49P19 (antibody)
- IC50 [1]: > 50 µg/mL
- IC80 [1]: > 50 µg/mL
- MPI [1]: 0
- IC50 [2]: 0.44 µg/mL
- IC80 [2]: 3.23 µg/mL
- MPI [2]: 89
- IC50 [3]: 0.579 µg/mL
- IC80 [3]: 2.09 µg/mL
- MPI [3]: 99
- IC50 [4]: 0.462 µg/mL
- IC80 [4]: 2.04 µg/mL
- MPI [4]: 100
- IC50 [5]: > 50 µg/mL
- IC80 [5]: > 50 µg/mL
- MPI [5]: 24
- IC50 [6]: 3.94 µg/mL
- IC80 [6]: 25.7 µg/mL
- MPI [6]: 87
- IC50 [7]: 0.132 µg/mL
- IC80 [7]: 0.445 µg/mL
- MPI [7]: 100
- IC50 [8]: 0.176 µg/mL
- IC80 [8]: 0.743 µg/mL
- MPI [8]: 100
- IC50 [9]: > 50 µg/mL
- IC80 [9]: > 50 µg/mL
- MPI [9]: 0
- IC50 [10]: > 50 µg/mL
- IC80 [10]: > 50 µg/mL
- MPI [10]: 22
- IC50 [11]: 3.04 µg/mL
- IC80 [11]: 28.2 µg/mL
- MPI [11]: 87
- IC50 [12]: 0.682 µg/mL
- IC80 [12]: 3.05 µg/mL
- MPI [12]: 100
- IC50 [13]: 1.25 µg/mL
- IC80 [13]: 8.52 µg/mL
- MPI [13]: 99
- IC50 [14]: 0.629 µg/mL
- IC80 [14]: 2.69 µg/mL
- MPI [14]: 100
- IC50 [15]: 0.948 µg/mL
- IC80 [15]: 6.22 µg/mL
- MPI [15]: 97

Substance: N49P9 (antibody)
- IC50 [1]: 17.6 µg/mL
- IC80 [1]: > 50 µg/mL
- MPI [1]: 55
- IC50 [2]: 0.072 µg/mL
- IC80 [2]: 0.271 µg/mL
- MPI [2]: 98
- IC50 [3]: 0.059 µg/mL
- IC80 [3]: 0.198 µg/mL
- MPI [3]: 100
- IC50 [4]: 0.137 µg/mL
- IC80 [4]: 0.502 µg/mL
- MPI [4]: 100
- IC50 [5]: 0.055 µg/mL
- IC80 [5]: 0.252 µg/mL
- MPI [5]: 100
- IC50 [6]: 0.023 µg/mL
- IC80 [6]: 0.065 µg/mL
- MPI [6]: 100
- IC50 [7]: 0.015 µg/mL
- IC80 [7]: 0.034 µg/mL
- MPI [7]: 100
- IC50 [8]: 0.02 µg/mL
- IC80 [8]: 0.057 µg/mL
- MPI [8]: 100
- IC50 [9]: 0.095 µg/mL
- IC80 [9]: 0.258 µg/mL
- MPI [9]: 100
- IC50 [10]: 0.253 µg/mL
- IC80 [10]: 1.16 µg/mL
- MPI [10]: 100
- IC50 [11]: 0.017 µg/mL
- IC80 [11]: 0.047 µg/mL
- MPI [11]: 100
- IC50 [12]: 0.119 µg/mL
- IC80 [12]: 0.575 µg/mL
- MPI [12]: 100
- IC50 [13]: 0.466 µg/mL
- IC80 [13]: 1.85 µg/mL
- MPI [13]: 100
- IC50 [14]: 0.064 µg/mL
- IC80 [14]: 0.223 µg/mL
- MPI [14]: 100
- IC50 [15]: 0.051 µg/mL
- IC80 [15]: 0.247 µg/mL
- MPI [15]: 100

Substance: N49P7.2 (antibody)
- IC50 [16]: 0.03 µg/mL
- IC80 [16]: 0.121 µg/mL
- MPI [16]: 100
- IC50 [17]: 3.91 µg/mL
- IC80 [17]: 18.2 µg/mL
- MPI [17]: 98
- IC50 [18]: 0.1 µg/mL
- IC80 [18]: 0.289 µg/mL
- MPI [18]: 100
- IC50 [19]: 0.114 µg/mL
- IC80 [19]: 0.771 µg/mL
- MPI [19]: 100
- IC50 [20]: 0.313 µg/mL
- IC80 [20]: 1.03 µg/mL
- MPI [20]: 100
- IC50 [21]: > 50 µg/mL
- IC80 [21]: > 50 µg/mL
- MPI [21]: 22
- IC50 [22]: 0.237 µg/mL
- IC80 [22]: 0.831 µg/mL
- MPI [22]: 100
- IC50 [23]: 0.223 µg/mL
- IC80 [23]: 1.37 µg/mL
- MPI [23]: 100
- IC50 [24]: 0.472 µg/mL
- IC80 [24]: 2.24 µg/mL
- MPI [24]: 100
- IC50 [25]: 0.01 µg/mL
- IC80 [25]: 0.036 µg/mL
- MPI [25]: 100
- IC50 [26]: 0.045 µg/mL
- IC80 [26]: 0.2 µg/mL
- MPI [26]: 100
- IC50 [27]: 1.26 µg/mL
- IC80 [27]: 4.42 µg/mL
- MPI [27]: 100
- IC50 [28]: 44.2 µg/mL
- IC80 [28]: > 50 µg/mL
- MPI [28]: 53
- IC50 [29]: 0.362 µg/mL
- IC80 [29]: 1.2 µg/mL
- MPI [29]: 100

Substance: N49P9.1 (antibody)
- IC50 [1]: > 50 µg/mL
- IC80 [1]: > 50 µg/mL
- MPI [1]: 45
- IC50 [2]: 0.045 µg/mL
- IC80 [2]: 0.352 µg/mL
- MPI [2]: 98
- IC50 [3]: 0.055 µg/mL
- IC80 [3]: 0.725 µg/mL
- MPI [3]: 100
- IC50 [4]: 0.21 µg/mL
- IC80 [4]: 1.37 µg/mL
- MPI [4]: 100
- IC50 [5]: 0.131 µg/mL
- IC80 [5]: 0.67 µg/mL
- MPI [5]: 100
- IC50 [6]: 0.029 µg/mL
- IC80 [6]: 0.083 µg/mL
- MPI [6]: 100
- IC50 [7]: 0.019 µg/mL
- IC80 [7]: 0.057 µg/mL
- MPI [7]: 100
- IC50 [8]: 0.012 µg/mL
- IC80 [8]: 0.041 µg/mL
- MPI [8]: 100
- IC50 [9]: 0.119 µg/mL
- IC80 [9]: 0.389 µg/mL
- MPI [9]: 100
- IC50 [10]: 0.474 µg/mL
- IC80 [10]: 2.24 µg/mL
- MPI [10]: 100
- IC50 [11]: 0.03 µg/mL
- IC80 [11]: 0.082 µg/mL
- MPI [11]: 100
- IC50 [12]: 0.156 µg/mL
- IC80 [12]: 0.939 µg/mL
- MPI [12]: 100
- IC50 [13]: 0.519 µg/mL
- IC80 [13]: 0.151 µg/mL
- MPI [13]: 100
- IC50 [14]: 0.073 µg/mL
- IC80 [14]: 0.232 µg/mL
- MPI [14]: 100
- IC50 [15]: 0.092 µg/mL
- IC80 [15]: 0.286 µg/mL
- MPI [15]: 100

Substance: 10E8 (antibody)
- IC50, titer in TZM.bl cells [30]: > 10 µg/mL
- IC80, titer in TZM.bl cells [30]: > 10 µg/mL
- IC50, titer in TZM.bl cells [31]: 1.09 µg/mL
- IC80, titer in TZM.bl cells [31]: 6.51 µg/mL
- IC50, titer in TZM.bl cells [32]: 0.051 µg/mL
- IC80, titer in TZM.bl cells [32]: 1.91 µg/mL

Reference: patent publication US20230002480A1
